These results are taken from PMC10099132, “Sequence and Structural Motifs Controlling the Broad Substrate Specificity of the Mycobacterial Hormone-Sensitive Lipase LipN” (ACS Omega, 2023).

In data set [1] the test system is CCCC(=O)Oc1ccc([N+](=O)[O-])cc1. As to the kind of experiment: purified protein, by the assay type. Further details: p-nitrophenyl ester hydrolysis, absorbance at 412 nm, Michaelis-Menten fit. The text has this:
(A) Classic p-nitrophenyl ester substrates were used as conformation for fluorogenic substrate measurements (Figure 1). (B) Catalytic efficiency comparison of MmLipN against p-nitrophenyl substrates. Catalytic efficiency values (kcat/Km) are given ± SD. (C, D) Kinetic activity of MmLipN against (C) short alkyl ester substrates: p-nitrophenyl acetate (C2) and p-nitrophenyl butyrate (C4) and (D) longer alkyl ester substrates: p-nitrophenyl valerate ([…]), p-nitrophenyl octonoate (C8), and p-nitrophenyl myristate (C14). Data points were fitted to the Michaelis–Menten equation and are shown ± SD.

Data set [2] concerns CC(=O)OCOc1ccc2c(c1)Oc1cc(OCOC(C)=O)ccc1C21OC(=O)c2ccccc21. As to the kind of experiment: purified protein, by the assay type. The arrangement: fluorogenic ester hydrolysis, fluorescein release, Michaelis-Menten fit of initial rates. How it is done:
(§1) The enzyme kinetic activity of LipN was assayed via the hydrolysis of the fluorogenic substrates (Figure 1) in accordance with past kinetic analysis of mycobacterial serine hydrolases.[37],[38],[40],[66],[67] Kinetic assays were run in triplicate on black 96-well plates in a Synergy H1 Hybrid Reader (BioTek). Fluorogenic ester substrates (10 mM in DMSO) were diluted to a starting concentration of 100 μM in PBS containing acetylated BSA (Sigma; 0.1 mg/mL). Eight serial dilutions (1:1; 120 μL into 240 μL total volume) of each substrate were made using PBS–BSA. Fluorogenic substrate dilutions (95 μL) were then transferred to opaque 96-well microplate (Corning, Lowell, MA). Reactions were initiated by quickly adding enzyme (5 μL, 3.0 nM final concentration) to each assay well, mixed, and the fluorescence counts measured every 26–30 s for 4.5 min with a BioTek H1 Synergy multimode plate reader (Biotek Instruments; Winooski, VT) at ambient temperature. The instrument measured relative fluorescence through excitation at λ = 485 nm and emission at λ = 520 nm. The fluorescence change was converted to molar concentrations using a fluorescein standard curve (300–2.3 nM), whose fluorescence was measured simultaneously. The initial rates of the enzyme-catalyzed reactions were measured in triplicate and plotted versus fluorogenic substrate concentration. […] (A) Activation of fluorogenic ester substrates by MmLipN. Each of the substrates is composed of diacyloxymethyl ether fluorescein with varying R-groups. The differing R-groups have been organized into classes and colored based on chemical functionality. All of the substrates were synthesized as described previously.[38],[43] Substrates 6, 10–11, 14–15, 20, 23–30, and 33 were newly synthesized for this characterization of MmLipN. Detailed synthetic characterization is provided in the Supporting Information. (B) Global comparison of the catalytic specificity (kcat/KM) of MmLipN against each of the 33 substrates with ester classes labeled. Catalytic efficiency values (kcat/Km) are given ± SD based on at least three independent kinetic replicates. (C, D) Kinetic activity of MmLipN against high-activity ester substrates 1 (black circles), 7 (blue squares), and 20 (red diamonds) and low-activity ester substrates 12 (green circles), 16 (red squares), 27 (purple diamonds), and 31 (orange squares). Low- and high-activity substrates display classic Michaelis–Menten kinetics with MmLipN and activity above background hydrolysis rates. Traces colored based on ester classification from (A, B). All measurements were completed in at least triplicate and shown ± SD.

In data set [3] the test system is O=C1OC2(c3ccc(OCOC(=O)C4(C(F)(F)F)CC4)cc3Oc3cc(OCOC(=O)C4(C(F)(F)F)CC4)ccc32)c2ccccc21. As to the kind of experiment: purified protein, by the assay type. The arrangement: fluorogenic ester hydrolysis, fluorescein release, Michaelis-Menten fit of initial rates. The protocol:
as §1

Data set [4] relates to O=C(OCOc1ccc2c(c1)Oc1cc(OCOC(=O)c3ccco3)ccc1C21OC(=O)c2ccccc21)c1ccco1. Nature of the data set: purified protein, by the assay type. Further details: fluorogenic ester hydrolysis, fluorescein release, Michaelis-Menten fit of initial rates. How it is done: as §1
Data set [5] concerns CS(=O)(=O)C1(C(=O)OCOc2ccc3c(c2)Oc2cc(OCOC(=O)C4(S(C)(=O)=O)CC4)ccc2C32OC(=O)c3ccccc32)CC1. As to the kind of experiment: purified protein, by the assay type. The arrangement: fluorogenic ester hydrolysis, fluorescein release, Michaelis-Menten fit of initial rates. The protocol: as §1
Data set [6] has as its system O=C1OC2(c3ccc(OCOC(=O)C4(O)CC4)cc3Oc3cc(OCOC(=O)C4(O)CC4)ccc32)c2ccccc21. As to the kind of experiment: purified protein, by the assay type. Further details: fluorogenic ester hydrolysis, fluorescein release, Michaelis-Menten fit of initial rates. The protocol:
as §1

The subject of data set [7] is O=C1OC2(c3ccc(OCOC(=O)C4CCCC4)cc3Oc3cc(OCOC(=O)C4CCCC4)ccc32)c2ccccc21. Nature of the data set: purified protein, by the assay type. The arrangement: fluorogenic ester hydrolysis, fluorescein release, Michaelis-Menten fit of initial rates. How it is done: as §1
The target of data set [8] is T1, MmLipN (LipN from M. marinum) (Mycobacterium marinum, UniProt B2HIK1).
T1 construct: E. coli LOBSTR (DE3); Ni-NTA
T1 sequence (B2HIK1 1-372): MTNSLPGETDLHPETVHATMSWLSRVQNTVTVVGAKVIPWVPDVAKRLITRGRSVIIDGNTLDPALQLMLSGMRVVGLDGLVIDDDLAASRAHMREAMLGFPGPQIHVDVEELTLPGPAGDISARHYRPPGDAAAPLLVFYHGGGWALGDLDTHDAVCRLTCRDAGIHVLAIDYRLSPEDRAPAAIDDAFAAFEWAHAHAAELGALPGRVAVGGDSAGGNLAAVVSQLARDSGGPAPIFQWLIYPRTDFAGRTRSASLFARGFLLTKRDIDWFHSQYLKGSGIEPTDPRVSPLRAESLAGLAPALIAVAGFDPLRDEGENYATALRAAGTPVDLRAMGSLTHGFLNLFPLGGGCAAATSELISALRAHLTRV
Nature of the data set: p-nitrophenol release at […] nm, Michaelis-Menten fit. It is filed as biochemical. The note with it: PBS, acetylated BSA 0.1 mg/mL, acetonitrile, 36 nM enzyme, 25 °C.

With “MmLipN (LipN from M. marinum) (Mycobacterium marinum M)”, the Km in data set [1] was 20 ± 9 µM; in data set [2] it was 0.22 ± 0.12 µM; in data set [3] it was 0.37 ± 0.13 µM; in data set [4] it was 0.84 ± 0.60 µM; in data set [5], 0.084 ± 0.15 µM; in data set [6], 0.40 ± 0.10 µM. Further, the Km in data set [7] turned out to be 33.9 ± 7.71 µM. Besides, the kcat in data set [1] was found to be 190 ± 10 s⁻¹; in data set [2], 0.1 ± 0.038 s⁻¹; in data set [3] it was 3.7e-05 ± 3e-05 s⁻¹; in data set [4], 0.003 ± 0.0048 s⁻¹; in data set [5], 1.4e-05 ± 5e-05 s⁻¹; in data set [6], 0.0029 ± 0.0016 s⁻¹. Besides, in data set [7], the kcat came to 0.0012 ± 0.0001 s⁻¹. For the same compound, the kcat/Km stood at 9.3e+06 ± 2.1e+06 M⁻¹ s⁻¹ in data set [1]; 460000 ± 150000 M⁻¹ s⁻¹ in data set [2]; 98 ± 43 M⁻¹ s⁻¹ in data set [3]; 3500 ± 3100 M⁻¹ s⁻¹ in data set [4]; 170 ± 330 M⁻¹ s⁻¹ in data set [5]; 7400 ± 2200 M⁻¹ s⁻¹ in data set [6]. Further, the kcat/Km in data set [7] came to 29 ± 4 M⁻¹ s⁻¹.
With `CCCC(=O)Oc1ccc([N+](=O)[O-])cc1` [p-nitrophenyl butyrate], the KM result in data set [8] was “LipN showed highest activity against p-nitrophenyl butyrate”.
In the case of `CC(=O)Oc1ccc([N+](=O)[O-])cc1` [p-nitrophenyl acetate], the KM result in data set [8] was “The enzymatic activity of MmLipN was measured against p-nitrophenyl acetate”.
The same measure, in the same setting: then `CCCCC(=O)Oc1ccc([N+](=O)[O-])cc1` [p-nitrophenyl valerate], with “MmLipN was measured against p-nitrophenyl acetate, p-nitrophenyl butyrate, p-nitrophenyl valerate”.

A word on the Km: it is the substrate concentration at which the rate is half of its maximum. The term kcat denotes the maximal rate divided by the concentration of active sites. What is called kcat/Km is the second-order rate constant that governs catalysis at low substrate concentration.
